Measured values from patent US20160146786A1, “Method of monitoring cellular trafficking of peptides” (PHYLOGICA LIMITED, priority 2013, published 2016).

Columns and labels:
[1] = CD spectrophotometry of FITC-labelled peptides; type: physicochemical
[2] = system: HEK-293 cells expressing GFP 11+GFP 1-10 fragments; assay: Effect of cargo peptides on reconstitution of split GFP activity, transfected constructs (FIG. 17); type: cell-based, human; details: peptide fused to Sumo-GFP 11, expressed from transiently transfected constructs; independent of uptake
Description: FIG. 17 is a graphical representation showing the effect of cargo proteins on reconstitution of split GFP activity in isolated HEK-293 cells expressing GFP 11+GFP 1-10 fragments. HEK-293 cells transfected with GFP 1-10 vectors pcDNA4/TO vector [TO hGFP1-10(a)] or pcDNA4/HM vector [HM hGFP1-10(a)] are shown on the abscissa. Relative fluorescence for each GFP 11 construct added to the cells, normalized for activity in the presence of the MyD88_S11 and mGFP1-10 constructs, is indicated on the y-axis. The GFP 11 constructs lacking cargo peptides were: MyD88-GFP 11 fusion (MyD88_S11); Mal-GFP 11 fusion (Mal_S11), β-actin-GFP 11 fusion β-actin_S11), and Sumo-GFP 11 fusion (Sumo_S11). […]
The inventors have also considered the effect of cargo protein on reconstitution of split GFP activity in isolated HEK-293 cells expressing GFP 11+GFP 1-10 fragments. HEK-293 cells were transfected with GFP 1-10 vectors pcDNA4/TO vector [TO hGFP1-10(a)] or pcDNA4/HM vector [HM hGFP1-10(a)], and recombinant GFP 11-encoding constructs were added to the cells, and fluorescence activity was determined as a normalized value relative to fluorescence obtained for transfections employing MyD88-GFP11 and mGFP1-10 constructs. […]

[3] = biological target: hGFP1-10(a) (humanized variant of commercially-available mGFP1-10, 'A' variant, expressed from pcDNA4/TO or pcDNA4/HM); assay: cell-based or functional assay
endosome = details: Sugita et al. 2008; cited from earlier work

Substance: C20_ABH_0304_1746: identified CPP, 38 aa; Transposase fragment [Bordetella pertussis] (PLKPKKPKTQEKKKKQPPKPKKPKTQEKKKKQPPKPKR)
- CD spectral analysis, conformation ([1]; NaF Buffer pH 7.2): Strong Beta-turn
- CD spectral analysis, conformation ([1]; SDS Micelles pH 7.2): Strong Beta-turn

Substance: PYC35: cargo protein, which is not a CPP (RSDYKDDDDKAYQSIRSGGIESSSKRER)
- Decrease of Sumo_S11 fluorescence (reconstitution of split GFP activity) [2]: no-effect

Substance: T08_HBM_0104_0084: identified CPP, 33 aa (RKQKSLQTKLAENPPVPRKKRQSRPRWKQWLQK)
- CD spectral analysis, conformation ([1]; NaF Buffer pH 7.2): Partially helical
- CD spectral analysis, conformation ([1]; SDS Micelles pH 4.5): Helical
- CD spectral analysis, conformation ([1]; SDS Micelles pH 7.2): Helical

Substance: T09_HBM_0103_0167: identified CPP, 32 aa (PSSTPATNVARPRLNPIRGHKFALAVPNSRTR)
- CD spectral analysis, conformation ([1]; NaF Buffer pH 4.5): Random coil
- CD spectral analysis, conformation ([1]; NaF Buffer pH 7.2): Coil with Beta-turn
- CD spectral analysis, conformation ([1]; SDS Micelles pH 4.5): Random coil
- CD spectral analysis, conformation ([1]; SDS Micelles pH 7.2): Coil with Beta-turn

Substance: TAT-Sumo-GFP 11 fusion
- decrease of GFP fluorescence (split GFP reconstitution) relative to Sumo S11 in transiently transfected HEK-293 cells [3]: > 50%

Substance: transferrin: named in cited endosome escape study
- Efficiency of endosome escape (endosome): low
